± gives the standard deviation of the averaged measurements.
These sequences were tested on Saccharomyces cerevisiae (assay: protein stability index of tFT-peptide fusion (C-terminal peptide) (PSI (0-1 scale)); higher = more stable (slower turnover)). Details: genetic background: wild type; temperature: 30 C.
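Also: PSI is a weighted mean of sequencing reads over stability bins, variants kept only with over 10 reads, mCherry proximal and sfGFP distal, peptide attached via GGGS linker.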

Sequence	protein stability index
PPRRPPRPPPPA	0.701 ± 0.064
NGGRSATGSVVV	0.701 ± 0.066
EKQKNLPQEAKQ	0.7 ± 0.02
GPVHVRGVGFGF	0.73 ± 0.02
AAVLFVHATSHE	0.685 ± 0.061
MSHISPFPIFPC	0.686 ± 0.0074
PTPTTNPTHSAP	0.695 ± 0.048
SCRLYIKVDKSA	0.6464 ± 0.0034
LAGGGWGGACGE	0.655 ± 0.017
QNQILNKKVIFK	0.681 ± 0.056
RHLACFWFRPPW	0.694 ± 0.018
CFLPGFYFLFSI	0.561 ± 0.033
LSCSPVFFPLQP	0.69 ± 0.0096
PSPAPRPFAPLP	0.69 ± 0.01
KPRLARLSLSLL	0.784 ± 0.14
GRGVVGLWVSGT	0.699 ± 0.021
GGGGAGGGGGGG	0.6739 ± 0.0021
GGGGPGLEARSL	0.618 ± 0.0078
NKKKKKRNKQKN	0.762 ± 0.011
KVVVWRAKTSHS	0.692 ± 0.068
RGIYSIGASGRS	0.695 ± 0.033
GIGLSVGDVLGC	0.73 ± 0.037
ISHPTPQSVPAI	0.612 ± 0.0063
GGVNRPRKSTAT	0.6977 ± 0.0063
PPPPSVCPRFPI	0.785 ± 0.12
NLYENQDHETYR	0.651 ± 0.13

Sequence	protein stability index
PPPPPQSRASSP	0.738 ± 0.022
PVVGNPHRIFGV	0.714 ± 0.028
FVFWCFGSFCSC	0.553 ± 0.015
IPLGGPTPSNYD	0.721 ± 0.025
PQTPQTSTQAPG	0.673 ± 0.01
RFYFSLSWSGFC	0.66 ± 0.077
ARVAGECRCGRT	0.6554 ± 0.00095
GFCSVIVLSLLL	0.487 ± 0.041
CGPRPDSIDVGF	0.608 ± 0.052
RWGANSVSLEGE	0.737 ± 0.02
KKKKKIEQRKQE	0.67 ± 0.017
LPLSRPPLPPPL	0.786 ± 0.031
HPPPSPRPPPPP	0.691 ± 0.039
SLSTLVFSFCVL	0.517 ± 0.03
SLFPAGWAGFSD	0.73 ± 0.011
PDPARSPLTSSY	0.6569 ± 0.0024
PACVLVRRGWYL	0.7277 ± 0.0029
VAWYSLAEGCEG	0.641 ± 0.043
PRTSSPPRPFRF	0.624 ± 0.022
YACADVSDPLSV	0.721 ± 0.019
GVQDVRAGLLEY	0.676 ± 0.037
YINFQKMRKKFD	0.723 ± 0.04
GISPFYTALSGF	0.754 ± 0.03
LAPPPAAPLSHS	0.697 ± 0.018
SLPCPISPPSFL	0.697 ± 0.018
RSRPPPPPLLFP	0.701 ± 0.043

Sequence	protein stability index
DRVHVSNGYLEF	0.684 ± 0.1
TFQMAYHSRTAV	0.637 ± 0.13
LGLFGSVVVCGQ	0.65 ± 0.015
AGRVGGFFFVVA	0.608 ± 0.017
SPPLPPTPPVTT	0.705 ± 0.19
GGGGVFGVVRVG	0.631 ± 0.037
PPPPAPPVPLPL	0.693 ± 0.016
GPPRDLARKAGL	0.708 ± 0.065
GARGRAYDRTSQ	0.669 ± 0.038
HILDHVTSSLSF	0.66 ± 0.011
EGITFGNDECWC	0.782 ± 0.095
SMAPDIQLYTAS	0.68901 ± 0.0006
HSASSDAGIKVR	0.718 ± 0.0083
PQVLSPPLSTSR	0.728 ± 0.008
PPFPLACPPLLF	0.657 ± 0.11
MKASRREDLCEP	0.62 ± 0.065
PKKGKKKLREKS	0.728 ± 0.051
TRPLIRRRHWID	0.697 ± 0.025
RREKQKTPAKKT	0.634 ± 0.034
LYMSRYLQLNFG	0.653 ± 0.005
RQSLEDSLLHQH	0.774 ± 0.081
SGDVGGGHWVGG	0.729 ± 0.013
WVGWVACGAGGG	0.651 ± 0.061
RLEDGCGVGAGR	0.645 ± 0.015
VANGGVIVRGRC	0.668 ± 0.012
RSPLNTAPLRNR	0.682 ± 0.025

Sequence	protein stability index
VSSAGRPRGFLP	0.671 ± 0.01
SPPPPPVHPSSP	0.722 ± 0.019
RPPPRPPHPPPL	0.6791 ± 0.0048
RPLPPPPPPRSP	0.741 ± 0.21
DLPVIGHRLPLF	0.684 ± 0.012
VEWLGWFGISNK	0.76 ± 0.017
RRLNNTPPVENC	0.753 ± 0.15
PGPHGVVPTGNE	0.6666 ± 0.0056
GKVGGQGGKGVV	0.765 ± 0.13
WSRGGGGHKEAM	0.639 ± 0.022
FERRGSSFWGGC	0.7 ± 0.032
LRPGRSKHSSQA	0.721 ± 0.044
SQLAGPPLPPPT	0.751 ± 0.021
CRWRLGRLARCA	0.515 ± 0.0084
PPPPPPTPAPPP	0.711 ± 0.044
GMDGRGGGGSVV	0.723 ± 0.039
IEEQQKEKNRPK	0.712 ± 0.027
KVRSFGGLFVKG	0.68 ± 0.022
SPPSRLRPAILP	0.668 ± 0.032
NLPLPPSPFALP	0.733 ± 0.053
AWCGGVVGVAWL	0.6661 ± 0.0062
RGALGVVWSGLD	0.637 ± 0.023
VGLEVGPLVGGE	0.6921 ± 0.0029
